From article PMC5452030
Where two headings read alike, the source gives them in different places.

What was measured:
Assay in all cases: SPR
[1] = target: human ApoER2 ECD-BAS D68N (LA1 mutant) (human)
[2] = target: human ApoER2 ECD-BAS E107Q (LA2 mutant) (human)
[3] = target: human ApoER2 ECD-BAS H96A/H99A (LA2 mutant) (human)
[4] = target: human ApoER2 ECD-BAS H96K/H99K (LA2 mutant) (human)
[5] = target: human ApoER2 ECD-BAS H96K/H99K (LA2 mutant) (human); remark: listed apart in the source

Kd [1]: > 2800 nM
Kd [2]: 38 nM
Kd [3]: 120 nM
Kd [4]: 490 nM
Kd [5]: 45 nM
B1: mouse reelin R56 fragment (fifth and sixth reelin repeats), wild type, for SPR (domain or fragment)
chain: DGNNLNNPVLLLDTFDFGPREDNWFFYPGGNIGLYCPYSSKGAPEEDSAMVFVSNEVGEHSITTRDLSVNENTIIQFEINVGCSTDSSSADPVRLEFSRDFGATWHLLLPLCYHSSSLVSSLCSTEHHPSSTYYAGTTQGWRREVVHFGKLHLCGSVRFRWYQGFYPAGSQPVTWAIDNVYIGPQCEEMCYGHGSCINGTKCICDPGYSGPTCKISTKNPDFLKDDFEGQLESDRFLLMSGGKPSRKCGILSSGNNLFFNEDGLRMLVTRDLDLSHARFVQFFMRLGCGKGVPDPRSQPVLLQYSLNGGLSWSLLQEFLFSNSSNVGRYIALEMPLKARSGSTRLRWWQPSENGHFYSPWVIDQILIGGNISGNTVLEDDFSTLDSRKWLLHPGGTKMPVCGSTGDALVFIEKASTRYVVTTDIAVNEDSFLQIDFAASCSVTDSCYAIELEYSVDLGLSWHPLVRDCLPTNVECSRYHLQRILVSDTFNKWTRITLPLPSYTRSQATRFRWHQPAPFDKQQTWAIDNVYIGDGCLDMCSGHGRCVQGSCVCDEQWGGLYCDEPETSLPTQLKDNFNRAPSNQNWLTVSGGKLSTVCGAVASGLALHFSGGCSRLLVTVDLNLTNAEFIQFYFMYGCLITPSNRNQGVLLEYSVNGGITWNLLMEIFYDQYSKPGFVNILLPPDAKEIATRFRWWQPRHDGLDQNDWAIDNVLIS
